Reference: US20200040059A1
Positions count from the first letter of the chain named. In names and notes the source's numbering stands. Several values for one entry are separate records, joined by “and”; a condition that tells them apart may be missing. Equal values may be shown once.

T1: CD226 (human) (UniProt Q15762)
T1 sequence: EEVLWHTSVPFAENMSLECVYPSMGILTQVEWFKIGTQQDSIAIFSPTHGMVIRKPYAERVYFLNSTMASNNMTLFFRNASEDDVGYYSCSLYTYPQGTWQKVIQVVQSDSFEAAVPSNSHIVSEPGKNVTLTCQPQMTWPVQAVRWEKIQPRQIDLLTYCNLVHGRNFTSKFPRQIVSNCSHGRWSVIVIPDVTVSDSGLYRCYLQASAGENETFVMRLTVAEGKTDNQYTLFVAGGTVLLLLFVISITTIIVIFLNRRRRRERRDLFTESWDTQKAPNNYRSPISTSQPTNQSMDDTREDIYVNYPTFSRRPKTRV

T2: CD96 (UniProt P40200)
T2 sequence (looked up): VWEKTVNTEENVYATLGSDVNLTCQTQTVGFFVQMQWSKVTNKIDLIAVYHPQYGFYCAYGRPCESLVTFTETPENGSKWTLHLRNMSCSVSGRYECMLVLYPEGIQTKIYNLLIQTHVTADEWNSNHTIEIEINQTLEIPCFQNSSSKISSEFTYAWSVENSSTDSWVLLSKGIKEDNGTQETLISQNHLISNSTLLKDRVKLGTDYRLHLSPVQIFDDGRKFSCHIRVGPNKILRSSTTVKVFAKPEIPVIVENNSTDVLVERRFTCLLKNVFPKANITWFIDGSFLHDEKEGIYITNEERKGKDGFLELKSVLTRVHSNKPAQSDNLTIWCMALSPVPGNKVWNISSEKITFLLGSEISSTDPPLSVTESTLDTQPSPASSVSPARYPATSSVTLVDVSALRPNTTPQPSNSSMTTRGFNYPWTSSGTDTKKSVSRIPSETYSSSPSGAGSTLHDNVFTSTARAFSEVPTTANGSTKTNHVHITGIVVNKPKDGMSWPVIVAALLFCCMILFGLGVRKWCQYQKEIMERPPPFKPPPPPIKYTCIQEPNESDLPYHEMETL

B1: variant PD-L2 IgV-Fc G28V, Q72H, R76G, I86T (Fc fusion, not shown: a dimerising Fc or GST; small tags and cut ends)
chain: FTVTVPKELYIIEHGSNVTLECNFDTVSHVNLGAITASLQKVENDTSPHRERATLLEEQLPLGKASFHIPHVQVGDEGQYQCIITYGVAWDYKYLTLK
B2: variant PD-L2 IgV-Fc H15Q, T47A, H69L, Q82R, V89D (Fc fusion, not shown: a dimerising Fc or GST; small tags and cut ends)
chain: B1 chain with H14Q, V27G, T46A, H68L, H71Q, G75R, Q81R, T85I, V88D
B3: variant PD-L2 IgV-Fc I13V, H15Q, T47A, H69L, R76G, V89D (Fc fusion, not shown: a dimerising Fc or GST; small tags and cut ends)
chain: B1 chain with I12V, H14Q, V27G, T46A, H68L, H71Q, T85I, V88D
B4: variant PD-L2 IgV-Fc I13V, H15Q, V89D (Fc fusion, not shown: a dimerising Fc or GST; small tags and cut ends)
chain: B1 chain with I12V, H14Q, V27G, H71Q, G75R, T85I, V88D
B5: variant PD-L2 IgV-Fc H15Q, V31M, S67L, Q82R, V89D (Fc fusion, not shown: a dimerising Fc or GST; small tags and cut ends)
chain: B1 chain with H14Q, V27G, V30M, S66L, H71Q, G75R, Q81R, T85I, V88D
B6: variant PD-L2 IgV-Fc I13V, H15Q, R76G, D77N, Q82R, V89D (Fc fusion, not shown: a dimerising Fc or GST; small tags and cut ends)
chain: B1 chain with I12V, H14Q, V27G, H71Q, D76N, Q81R, T85I, V88D
B7: variant PD-L2 IgV-Fc I13V, H15Q, S39I, E44D, S67L (Fc fusion, not shown: a dimerising Fc or GST; small tags and cut ends)
chain: B1 chain with I12V, H14Q, V27G, S38I, E43D, S66L, H71Q, G75R, T85I
B8: variant PD-L2 IgV-Fc I13V, H15Q, V31A, N45S, Q82R, V89D (Fc fusion, not shown: a dimerising Fc or GST; small tags and cut ends)
chain: B1 chain with I12V, H14Q, V27G, V30A, N44S, H71Q, G75R, Q81R, T85I, V88D
B9: variant PD-L2 IgV-Fc I13V, H15Q, T47A, Q82R (Fc fusion, not shown: a dimerising Fc or GST; small tags and cut ends)
chain: B1 chain with I12V, H14Q, V27G, T46A, H71Q, G75R, Q81R, T85I
B10: variant PD-L2 IgV-Fc I13V, H15Q, Q82R (Fc fusion, not shown: a dimerising Fc or GST; small tags and cut ends)
chain: B1 chain with I12V, H14Q, V27G, H71Q, G75R, Q81R, T85I
B11: variant PD-L2 IgV-Fc I12V, I13V, H15Q, T47A, Q82R, V89D (Fc fusion, not shown: a dimerising Fc or GST; small tags and cut ends)
chain: B1 chain with I11V, I12V, H14Q, V27G, T46A, H71Q, G75R, Q81R, T85I, V88D
B12: variant PD-L2 IgV-Fc I13V, H15Q, T47A, Q82R, V89D (SEQ ID NO 1544) (Fc fusion, not shown: a dimerising Fc or GST; small tags and cut ends)
chain: B1 chain with I12V, H14Q, V27G, T46A, H71Q, G75R, Q81R, T85I, V88D
B13: variant PD-L2 IgV-Fc H15Q, T47A (Fc fusion, not shown: a dimerising Fc or GST; small tags and cut ends)
chain: B1 chain with H14Q, V27G, T46A, H71Q, G75R, T85I
B14: variant PD-L2 IgV-Fc H15Q, V89D (Fc fusion, not shown: a dimerising Fc or GST; small tags and cut ends)
chain: B1 chain with H14Q, V27G, H71Q, G75R, T85I, V88D
B15: variant PD-L2 IgV-Fc E44D, S67L, Q72H, Q82R, V89D (Fc fusion, not shown: a dimerising Fc or GST; small tags and cut ends)
chain: B1 chain with V27G, E43D, S66L, G75R, Q81R, T85I, V88D
B16: variant PD-L2 IgV-Fc I13V, S67L, Q82R, V89D (Fc fusion, not shown: a dimerising Fc or GST; small tags and cut ends)
chain: B1 chain with I12V, V27G, S66L, H71Q, G75R, Q81R, T85I, V88D
B17: variant PD-L2 IgV-Fc I13V, H15Q, Q82R, V89D (Fc fusion, not shown: a dimerising Fc or GST; small tags and cut ends)
chain: B1 chain with I12V, H14Q, V27G, H71Q, G75R, Q81R, T85I, V88D
B18: CD155 P18S, Y30C, F91S IgV-Fc (Fc fusion, not shown: a dimerising Fc or GST; small tags and cut ends)
chain: PGTGDVVVQAPTQVSGFLGDSVTLPCCLQVPNMEVTHVSQLTWARHGESGSMAVFHQTQGPSYSESKRLEFVAARLGAELRNASLRMSGLRVEDEGNYTCLFVTFPQGSRSVDIWL
B19: CD155 R94H IgV-Fc (Fc fusion, not shown: a dimerising Fc or GST; small tags and cut ends)
chain: B18 chain with S15P, C27Y, S88F, R91H
B20: CD155 P18T, S42P, F91S IgV-Fc (Fc fusion, not shown: a dimerising Fc or GST; small tags and cut ends)
chain: B18 chain with S15T, C27Y, S39P
B21: CD155 P18T, T45A, F91S IgV-Fc (Fc fusion, not shown: a dimerising Fc or GST; small tags and cut ends)
chain: B18 chain with S15T, C27Y, T42A
B22: CD155 P18S, P64S, F91S IgV-Fc (Fc fusion, not shown: a dimerising Fc or GST; small tags and cut ends)
chain: B18 chain with C27Y, P61S
B23: CD155 P18T, F91S, V115A IgV-Fc (Fc fusion, not shown: a dimerising Fc or GST; small tags and cut ends)
chain: B18 chain with S15T, C27Y, V112A
B24: CD155 P18T, F91S, G111D IgV-Fc (Fc fusion, not shown: a dimerising Fc or GST; small tags and cut ends)
chain: B18 chain with S15T, C27Y, G108D
B25: CD155 L44P IgV-Fc (Fc fusion, not shown: a dimerising Fc or GST; small tags and cut ends)
chain: B18 chain with S15P, C27Y, L41P, S88F
B26: CD155 P18S, F91S, L104P IgV-Fc (Fc fusion, not shown: a dimerising Fc or GST; small tags and cut ends)
chain: B18 chain with C27Y, L101P
B27: CD155 L88P IgV-Fc (Fc fusion, not shown: a dimerising Fc or GST; small tags and cut ends)
chain: B18 chain with S15P, C27Y, L85P, S88F
B28: CD155 P18T, F91S IgV-Fc (Fc fusion, not shown: a dimerising Fc or GST; small tags and cut ends)
chain: B18 chain with S15T, C27Y
B29: CD155 A13E, P18S, A56V, F91S IgV-Fc (Fc fusion, not shown: a dimerising Fc or GST; small tags and cut ends)
chain: B18 chain with A10E, C27Y, A53V
B30: CD155 P18T, F91S, F108L IgV-Fc (Fc fusion, not shown: a dimerising Fc or GST; small tags and cut ends)
chain: B18 chain with S15T, C27Y, F105L
B31: CD155 A56V IgV-Fc (Fc fusion, not shown: a dimerising Fc or GST; small tags and cut ends)
chain: B18 chain with S15P, C27Y, A53V, S88F
B32: CD155 variant IgV-Fc P18T, D23G, S24A, N35D, H49L, L79P, F91S, L104M, G111R (Fc fusion, not shown: a dimerising Fc or GST; small tags and cut ends)
chain: B18 chain with S15T, D20G, S21A, C27Y, N32D, H46L, L76P, L101M, G108R
B33: CD155 variant IgV-Fc P18F, S65A, S67V, F91S, L104M, G111R (Fc fusion, not shown: a dimerising Fc or GST; small tags and cut ends)
chain: WPPPGTGDVVVQAPTQVFGFLGDSVTLPCYLQVPNMEVTHVSQLTWARHGESGSMAVFHQTQGPAYVESKRLEFVAARLGAELRNASLRMSGLRVEDEGNYTCMFVTFPQRSRSVDIWL
B34: CD155 variant IgV-Fc P18F, L79P, M90L, F91S, V95A, L104M, G111R (Fc fusion, not shown: a dimerising Fc or GST; small tags and cut ends)
chain: B33 chain with A65S, V67S, L79P, M90L, V95A
B35: CD155 variant IgV-Fc P18C, T26M, L44V, M55I, Q62K, L79P, F91S, L104M, T107M (Fc fusion, not shown: a dimerising Fc or GST; small tags and cut ends)
chain: B33 chain with F18C, T26M, L44V, M55I, Q62K, A65S, V67S, L79P, T107M, R111G
B36: CD155 variant IgV-Fc V9L, P18L, L79P, M90I, F91S, T102S, L104M, G111R (Fc fusion, not shown: a dimerising Fc or GST; small tags and cut ends)
chain: B33 chain with V9L, F18L, A65S, V67S, L79P, M90I, T102S
B37: CD155 variant IgV-Fc V9I, P18T, D23G, L79P, F91S, G111R (Fc fusion, not shown: a dimerising Fc or GST; small tags and cut ends)
chain: B33 chain with V9I, F18T, D23G, A65S, V67S, L79P, M104L

biological target: PD-1 (Homo sapiens (Human)) (UniProt Q15116); assay: flow cytometry, Jurkat/PD-1 cells; vs wildtype PD-L2 IgV-Fc
Sequence (Q15116 21-288 limits assumed): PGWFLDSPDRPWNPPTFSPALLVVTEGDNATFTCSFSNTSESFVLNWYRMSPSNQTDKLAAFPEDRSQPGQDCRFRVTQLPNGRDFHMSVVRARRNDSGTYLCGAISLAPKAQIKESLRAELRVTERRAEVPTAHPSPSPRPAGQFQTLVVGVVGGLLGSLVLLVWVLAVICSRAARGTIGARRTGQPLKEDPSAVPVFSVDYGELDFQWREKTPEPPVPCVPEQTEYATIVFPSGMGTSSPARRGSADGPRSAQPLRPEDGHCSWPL

Binder	Fold increase over wildtype PD-L2 IgV-Fc [fold]
B1	0.57
B2	6.66
B3	5.52
B4	2.92
B5	6.85
B6	3.36
B7	6.45
B8	6.91
B9	9.05
B10	7.74
B11	6.22
B12	6.43
B13	2.7
B14	1.8
B15	5.23
B16	5.99
B17	5.03

biological target: T1, CD226 (human); assay: flow cytometry, transfected cells

Binder	MFI
B18	382000
B19	18900
B20	554000
B21	436000
B22	498000
B23	38500
B24	438000
B25	581000
B26	26200
B27	65100
B28	401000
B29	358000
B30	395000
B31	455000

biological target: PD-1 (Homo sapiens (Human)) (UniProt Q15116); assay: flow cytometry, Jurkat/PD-1 cells

Binder	MFI at 50 nM
B1	5560
B2	65600
B3	54300
B4	28700
B5	67400
B6	33100
B7	63500
B8	68000
B9	89100
B10	76100
B11	61200
B12	63300
B13	26600
B14	17700
B15	51500
B16	59000
B17	49500

biological target: T2, CD96; assay: flow cytometry, cells

Binder	MFI
B18	56900
B19	11700
B20	135000
B21	191000
B22	140000
B23	22700
B24	168000
B25	152000
B26	10900
B27	35300
B28	158000
B29	119000
B30	193000
B31	161000

biological target: T1, CD226 (human); assay: flow cytometry, CD226-expressing cells

Binder	MFI at 11.1 nM	Fold Change from CD155-ECD
B32	987 MFI	–
B33	901 MFI	0.06 fold
B34	917 MFI and 1070 MFI	0.06 fold and 0.07 fold
B35	973 MFI	0.06 fold
B36	910 MFI	0.06 fold
B37	897 MFI	0.06 fold
